Assay results published in the supplement of paper PMC7125110.
± gives the standard error. For some assays here: Variants at the floor of the assay were thinned out.

B1: glmS ribozyme (parent)
chain: AUAAAAGCGCCAGAACUACAGAAAUGUAGUUGACGAGGAGGAGGUUUAUCGAAUUUUCGGCGGAUGCCUCCAAA

Experiments:
Settings in all cases: with glucosamine-6-phosphate
glucosamine-6-phosphate [1] = variants of: B1; assay: kcat; higher = faster cleavage; RNA array
In short: (§1)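 kcat and KM were obtained from weighted Michaelis–Menten fits across concentrations of kobs values. Those came from one- or two-exponential decay fits to per-tile medians normalised to baseline and to non-cleaving reference variants. The variants were barcoded ribozymes transcribed in situ by E. coli RNA polymerase on sequenced MiSeq chips and tracked through a hybridised Cy3 probe at 37 °C, with 40 μM to 10 mM glucosamine-6-phosphate in HEPES/KCl/Mg(OAc)2 buffer flowed in.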

glucosamine-6-phosphate [2] = variants of: B1; assay: KM; higher = weaker cofactor use; RNA array
In short: as §1

glucosamine-6-phosphate [3] = variants of: B1; assay: self-cleavage kobs at 40 uM GlcN6P; higher = faster cleavage; RNA array
In short: as §1

glucosamine-6-phosphate [4] = variants of: B1; assay: self-cleavage kobs at 640 uM GlcN6P; higher = faster cleavage; RNA array
In short: as §1

glucosamine-6-phosphate [5] = variants of: B1; assay: self-cleavage kobs at 2500 uM GlcN6P; higher = faster cleavage; RNA array
In short: as §1

glucosamine-6-phosphate [6] = variants of: B1; assay: self-cleavage kobs at 10000 uM GlcN6P; higher = faster cleavage; RNA array
In short: as §1

glucosamine-6-phosphate [7] = variants of: B1; assay: self-cleavage kobs at 160 uM GlcN6P; higher = faster cleavage; RNA array
In short: as §1

Variant | kcat (glucosamine-6-phosphate [1]) [s⁻¹] | KM (glucosamine-6-phosphate [2]) [µM] | self-cleavage kobs at 40 uM GlcN6P (glucosamine-6-phosphate [3]) [s⁻¹] | self-cleavage kobs at 640 uM GlcN6P (glucosamine-6-phosphate [4]) [s⁻¹] | self-cleavage kobs at 2500 uM GlcN6P (glucosamine-6-phosphate [5]) [s⁻¹] | self-cleavage kobs at 10000 uM GlcN6P (glucosamine-6-phosphate [6]) [s⁻¹] | self-cleavage kobs at 160 uM GlcN6P (glucosamine-6-phosphate [7]) [s⁻¹]
AUAAAAGCGCCAGAACUACAGAAAUGUAGUUGACGAGGAGGAGGUUUAUCGAUUUUUCGGCGCAUGCCUCCAAA | < 1e-05 |  |  |  |  |  | 
AUAAAAGCGCCAGAACUACAGAAAUUUAGUUGACGAGGAUGAGGUUUAUCGAAUUUUCGGCGGAUGCCUCCAAA | 0.000912 ± 0.00012 | 272 ± 64 | 0.000119 ± 2.3e-05 | 0.000586 ± 0.00016 | 0.00144 ± 0.00066 | 0.000883 ± 0.00019 | 
AUAAAAGCGCCCGAACUACAGAAAUGUAGUUGACGACGAGGAGGUUUAUCGAAUUUUCGGCGGAUGCCUCCAAA | 8.54e-05 ± 2.4e-06 | 6970 ± 420 |  |  | 2.27e-05 ± 8.6e-06 | 5.03e-05 ± 7.5e-06 | 
AUAAAAGCGCCAGAACUACAGAAAUGUAGUUGACGAGGAGGAGGUUUAUCGAUUUAUCGGCGGAUGCCUCCAAA | 0.00699 ± 0.0012 | 1820 ± 450 | 0.000172 ± 2.1e-05 | 0.00169 ± 0.0002 | 0.00313 ± 0.00052 | 0.00667 ± 0.00065 | 0.000573 ± 8e-05
AUAAAAGCGCCAGAACUACAGAAAUGUAGUUCACGAGGAGGAGGUUAAUCGAAUUUUCGGCGGAUGCCUCCAAA | 4.35e-05 ± 2.1e-06 | 1450 ± 320 |  |  | 2.87e-05 ± 1.3e-05 | 3.77e-05 ± 9.7e-06 | 
AUAAAAGCGCCAGAACUACAGAAAUGUAGAUGACGAGGAGGAGGUUUAUCGAAUCUUCGGCGGAUCCCUCCAAA | 8.18e-05 ± 2.7e-05 |  |  |  | 0.000101 ± 2e-05 | 6.89e-05 ± 1.1e-05 | 
AUAAAAGCGCCAAAACUACAGAAAUGUAGUUCACGAGGAGGAGGUUUAUCGAAUUUUCGGCGGAUGCCUCCAAA | 0.00056 ± 0.00021 |  |  | 6.56e-05 ± 8.7e-06 | 0.000136 ± 1.8e-05 | 0.000388 ± 5.3e-05 | 
AUAAAAGCGCUAGAACUACAGAAAUGUAGUUGACGAAGAGGAGGUUUAUCGAAUUUUCGGCGGAUGCCUCCAAA | 7.88e-05 ± 6.9e-07 | 1070 ± 36 |  | 2.98e-05 ± 9.1e-06 | 5.51e-05 ± 9.5e-06 | 7.12e-05 ± 8.2e-06 | 
AUAAAAGCGCCAGAAAUACAGAAAUGUAGUUGACGAGGAGGAGGUUUAUAGAAUUUUCGGCGGAUGCCCCCAAA | 3.42e-05 ± 1.5e-05 |  |  |  | 5.24e-05 ± 2.3e-05 |  | 
AUAAAAGCGCCAGAACUACAGAAAUGUAGUUGACGAGGAGGAGGUCUAUCGAAUUUUCGGCGGAUGCCUCCAAA | 0.00387 ± 0.00034 | 1410 ± 170 | 0.000108 ± 2.5e-06 | 0.00126 ± 3.5e-05 | 0.00342 ± 0.00018 | 0.00329 ± 7.7e-05 | 0.000364 ± 1.3e-05
AUAAAAACGCCAGAACUACAGAAAUGUAGUUAACGAGGAGGAGGUUUAUGGAAUUUUCGGCGGAUGCCUCCAAA | 4.21e-05 ± 1.3e-05 |  | 4.2e-05 ± 1.6e-05 |  | 6.89e-05 ± 2.8e-05 |  | 4.85e-05 ± 1.9e-05
AUAAAAGCGCCAGAACUACAGAAAUGUAGUUGACGAGGAGGAGGUUUAUGGGAUUUUCGGCGGAUGCCUCCAAA | 2.65e-05 ± 7.5e-06 |  |  |  | 3.29e-05 ± 1.4e-05 |  | 3.58e-05 ± 1.7e-05
AUAAAAGCGCCAGAACUACAGAAAUGUAAUUGACGAGGAAGAGGUUUAUCGAAUUUUCGGCGGAUGCCUCCAAA | 0.000354 ± 5.1e-05 | 1090 ± 350 |  | 0.000154 ± 2.9e-05 | 0.000222 ± 3.7e-05 | 0.000353 ± 7.2e-05 | 3.78e-05 ± 1.7e-05
AUAAAAGCGCCAGAACUACAGAAAUGUAGUUGACGAGGAGGAGGUUUAUCGAAUUUUCGGCGGAUUCCACCAAA | 0.000163 ± 3e-05 |  |  | 8.9e-05 ± 1.5e-05 | 0.000118 ± 2.1e-05 | 0.000191 ± 3.2e-05 | 7.46e-05 ± 3e-05
AUAAAUGCGCCAGAACUACAGAAAUGUAGUAGACGAGGAGGAGGUUGAUAGAAUUUUCGGCGGGUGCUUCCAAA | 2.33e-05 ± 2.2e-06 |  |  |  |  |  | 
AUAAAAGCGCCAGAACUACAGAAAUGUAGUUGACGAGGAGGAGGUUUAGCGAAUUUUCGGCGGAUUCCUCCAAA | 6.16e-05 ± 2.8e-07 | 5640 ± 59 |  |  |  | 3.94e-05 ± 1.3e-05 | 
AUAAAAGCGUCAGAACUACAGAAAUGUAGUUGACGAGGAGGAGGUUUAUCGAUUUUUCGGCGGAUGCCUCCAAA | 1.55e-05 ± 3.9e-06 |  |  |  |  |  | 
AUAAAAGCGCCAGAACUACAGAAAUGUAGUUGACGAGGAGGAGGUUUAUCGAAUUAUCGGCGGAUGGCUCCAAA | 0.00221 ± 0.00081 | 1310 ± 590 | 6.73e-05 ± 6.8e-06 | 0.000684 ± 0.00015 | 0.000905 ± 0.00024 | 0.00313 ± 0.00047 | 0.000246 ± 2.7e-05
AUAAAAGCGCCAUAACUACAGAAAUGUAGUUGACGAGGAGGAGGUGUAUCGCAUUUUCGGCGGAUGUCUGCAAA | 2.41e-05 ± 6.8e-06 |  |  |  |  |  | 
